Measured values from publication doi:10.1101/2021.11.05.467329.
Where “and” joins values, the source holds several entries; their conditions need not be identical. Equal values may be shown once.

Key:
Assay in all cases: SEC
[1] = biological target: Plasmodium falciparum glyceraldehyde 3-phosphate dehydrogenase V238A variant (recombinant) (Plasmodium falciparum) (UniProt Q8IKK7)
[2] = biological target: Plasmodium falciparum glyceraldehyde 3-phosphate dehydrogenase I209T variant (recombinant) (Plasmodium falciparum) (UniProt Q8IKK7)
[3] = biological target: Plasmodium falciparum glyceraldehyde 3-phosphate dehydrogenase, wild type (recombinant) (Plasmodium falciparum) (UniProt Q8IKK7)

Plasmodium falciparum glyceraldehyde 3-phosphate dehydrogenase V238A variant (recombinant) (from UniProt Q8IKK7 4-335) (enzyme)
stoichiometry N [1]: 4 and 2

Plasmodium falciparum glyceraldehyde 3-phosphate dehydrogenase I209T variant (recombinant) (from UniProt Q8IKK7 4-335) (enzyme)
stoichiometry N [2]: 4 and 2

Plasmodium falciparum glyceraldehyde 3-phosphate dehydrogenase, wild type (recombinant) (from UniProt Q8IKK7 4-335) (enzyme)
stoichiometry N [3]: 4
